Results on seven molecules are retold here after US20220411483A1 (Chugai, published 2022).

Test [1] concerns the target T1, FcγRIIb extracellular domain, His tag (human, UniProt P31994 43-217).
T1 construct: extracellular domain; also called FcgRIIb
T1 sequence (looked up): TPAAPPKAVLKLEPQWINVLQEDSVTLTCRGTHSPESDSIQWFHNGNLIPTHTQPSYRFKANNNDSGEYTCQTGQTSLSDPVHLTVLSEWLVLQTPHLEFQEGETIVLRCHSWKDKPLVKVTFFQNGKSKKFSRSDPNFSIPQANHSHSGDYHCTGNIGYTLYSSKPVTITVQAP
Kind of test: SPR, bound amount per captured antibody.

For test [2], the target named is T2, FcγRIIa R type extracellular domain, His tag (human, UniProt P12318 34-217).
T2 construct: extracellular domain; also called FcgRIIaR
T2 sequence (looked up): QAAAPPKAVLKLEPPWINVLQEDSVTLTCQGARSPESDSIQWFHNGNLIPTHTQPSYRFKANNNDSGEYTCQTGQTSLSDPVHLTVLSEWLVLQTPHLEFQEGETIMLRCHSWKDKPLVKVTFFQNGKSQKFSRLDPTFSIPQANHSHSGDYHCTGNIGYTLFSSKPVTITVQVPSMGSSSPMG
Kind of test: SPR, bound amount per captured antibody.

In test [3] the target is T3, FcγRIIa H type extracellular domain, His tag (human, UniProt P12318 34-217).
T3 construct: extracellular domain; also called FcgRIIaH
T3 sequence (looked up): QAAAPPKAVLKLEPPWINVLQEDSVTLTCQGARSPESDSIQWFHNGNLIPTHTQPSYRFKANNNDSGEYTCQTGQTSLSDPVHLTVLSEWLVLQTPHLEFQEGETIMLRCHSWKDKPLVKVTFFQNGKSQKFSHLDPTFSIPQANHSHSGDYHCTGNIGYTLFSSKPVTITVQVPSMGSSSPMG
As to the kind of experiment: SPR, KD ratio.

Test [4] concerns the target T1, FcγRIIb extracellular domain, His tag. Kind of test: SPR, KD ratio.
Test [5] addresses T4, FcγRIa extracellular domain, His tag (human, UniProt P12314 16-292).
T4 construct: whole entry named; also called FcgRIa
As to the kind of experiment: SPR, KD ratio.

For test [6], the target named is T5, FcγRIIIa V type extracellular domain, His tag (human, UniProt P08637 17-208).
T5 construct: extracellular domain; also called FcgRIIIaV
Kind of test: SPR, KD ratio.

Test [7] deals with T2, FcγRIIa R type extracellular domain, …. Kind of test: SPR, KD ratio.

T5 sequence (P08637 17-208 F176V): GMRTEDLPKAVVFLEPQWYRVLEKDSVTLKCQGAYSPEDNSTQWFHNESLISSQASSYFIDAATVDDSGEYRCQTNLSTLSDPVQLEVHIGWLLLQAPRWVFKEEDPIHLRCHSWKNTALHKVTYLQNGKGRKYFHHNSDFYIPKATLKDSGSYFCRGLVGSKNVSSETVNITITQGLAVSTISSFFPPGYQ
T4 sequence (P12314 16-292): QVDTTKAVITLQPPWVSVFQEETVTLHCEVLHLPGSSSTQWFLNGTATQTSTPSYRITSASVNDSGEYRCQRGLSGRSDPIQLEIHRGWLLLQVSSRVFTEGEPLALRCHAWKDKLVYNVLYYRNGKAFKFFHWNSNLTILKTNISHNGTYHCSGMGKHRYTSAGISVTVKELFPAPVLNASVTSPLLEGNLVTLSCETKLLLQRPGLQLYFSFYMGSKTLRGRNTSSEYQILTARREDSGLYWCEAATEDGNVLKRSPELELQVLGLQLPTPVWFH

B1: IL6R-P657/IL6R-L (antibody, human IgG1, kappa)
heavy: QVQLQESGPGLVKPSETLSLTCAVSGHSISHDHAWSWVRQPPGEGLEWIGFISYSGITNYNPSLQGRVTISRDNSKNTLYLQMNSLRAEDTAVYYCARSLARTTAMDYWGEGTLVTVSSASTKGPSVFPLAPSSKSTSGGTAALGCLVKDYFPEPVTVSWNSGALTSGVHTFPAVLQSSGLYSLSSVVTVPSSSLGTQTYICNVNHKPSNTKVDKKVEPKSCDKTHTCPPCPAPELLGGDSVMLFPPKPKDTLMISRTPEVTCVVVDVSHEDPEVKFNWYVDGVEVHNAKTKPREEQENSTYRVVSVLTVLHQDWLNGKEYKCKVSNKALPYPIEKTISKAKGQPREPQVYTLPPSRDELTKNQVSLTCLVKGFYPSDIAVEWESNGQPENNYKTTPPVLDSDGSFFLYSKLTVDKSRWQQGNVFSCSVMHEALHNHYTQKSLSLSP
light: not shown
Take B1: the “Relative FcgRIIb-binding Activity” value in test [1] was 115 % of IL6R-G1d/IL6R-L; in test [4], 1.64 fold of IL6R-G1d/IL6R-L. Moreover, the “Relative FcgRIIaR-binding Activity” value in test [2] was 15.4 % of IL6R-G1d/IL6R-L; in test [7], 0.026 fold of IL6R-G1d/IL6R-L. Besides, the “Relative FcgRIIaH-binding Activity” value in test [3] was 0.009 fold of IL6R-G1d/IL6R-L. For the same molecule, in test [5], the “Relative FcgRIa-binding Activity” value was 0.0194 fold of IL6R-G1d/IL6R-L. Besides, the “Relative FcgRIIIaV-binding Activity” value in test [6] is 0.005 fold of IL6R-G1d/IL6R-L.

B2: IL6R-P687/IL6R-L (antibody, human IgG1, kappa)
heavy: QVQLQESGPGLVKPSETLSLTCAVSGHSISHDHAWSWVRQPPGEGLEWIGFISYSGITNYNPSLQGRVTISRDNSKNTLYLQMNSLRAEDTAVYYCARSLARTTAMDYWGEGTLVTVSSASTKGPSVFPLAPSSKSTSGGTAALGCLVKDYFPEPVTVSWNSGALTSGVHTFPAVLQSSGLYSLSSVVTVPSSSLGTQTYICNVNHKPSNTKVDKKVEPKSCDKTHTCPPCPAPELLGGDSVFLFPPKPKDTLMISRTPEVTCVVVDVSHEDPEVKFNWYVDGVEVHNAKTKPREEQYNATYRVVSVLTVLHQDWLNGKEYKCKVNNKALPHPIEKTISKAKGQPREPQVYTLPPSRDELTKNQVSLTCLVKGFYPSDIAVEWESNGQPENNYKTTPPVLDSDGSFFLYSKLTVDKSRWQQGNVFSCSVMHEALHNHYTQKSLSLSP
light: not shown
With B2, the “Relative FcgRIIb-binding Activity” value in test [1] was 100 % of IL6R-G1d/IL6R-L; in test [4] it was 1.01 fold of IL6R-G1d/IL6R-L. Moreover, the figures for the “Relative FcgRIIaR-binding Activity” value in test [2] and in test [7] were 12.6 % of IL6R-G1d/IL6R-L and 0.02 fold of IL6R-G1d/IL6R-L, respectively. The “Relative FcgRIIaH-binding Activity” value in test [3] was 0.007 fold of IL6R-G1d/IL6R-L. Moreover, the “Relative FcgRIa-binding Activity” value in test [5] was 0.0471 fold of IL6R-G1d/IL6R-L. Also, the “Relative FcgRIIIaV-binding Activity” value in test [6] was 0.008 fold of IL6R-G1d/IL6R-L.

B3: IL6R-P659/IL6R-L (antibody, human IgG1, kappa)
heavy: QVQLQESGPGLVKPSETLSLTCAVSGHSISHDHAWSWVRQPPGEGLEWIGFISYSGITNYNPSLQGRVTISRDNSKNTLYLQMNSLRAEDTAVYYCARSLARTTAMDYWGEGTLVTVSSASTKGPSVFPLAPSSKSTSGGTAALGCLVKDYFPEPVTVSWNSGALTSGVHTFPAVLQSSGLYSLSSVVTVPSSSLGTQTYICNVNHKPSNTKVDKKVEPKSCDKTHTCPPCPAPELLGQDSVMLFPPKPKDTLMISRTPEVTCVVVDVSHEDPEVKFNWYVDGVEVHNAKTKPREEQENSTYRVVSVLTVLHQDWLNGKEYKCKVSNKALPAPIEKTISKAKGQPREPQVYTLPPSRDELTKNQVSLTCLVKGFYPSDIAVEWESNGQPENNYKTTPPVLDSDGSFFLYSKLTVDKSRWQQGNVFSCSVMHEALHNHYTQKSLSLSP
light: not shown
For B3, the figures for the “Relative FcgRIIb-binding Activity” value in test [1] and in test [4] were 87 % of IL6R-G1d/IL6R-L and 0.807 fold of IL6R-G1d/IL6R-L, respectively. Moreover, the entries for the “Relative FcgRIIaR-binding Activity” value in test [2] and in test [7] were 9.1 % of IL6R-G1d/IL6R-L and 0.015 fold of IL6R-G1d/IL6R-L, respectively. Besides, the “Relative FcgRIIaH-binding Activity” value in test [3] is 0.006 fold of IL6R-G1d/IL6R-L. In addition, the “Relative FcgRIa-binding Activity” value in test [5] is 0.0041 fold of IL6R-G1d/IL6R-L. In addition, the “Relative FcgRIIIaV-binding Activity” value in test [6] is 0.005 fold of IL6R-G1d/IL6R-L.

B4: IL6R-P660/IL6R-L (antibody, human IgG1, kappa)
heavy: QVQLQESGPGLVKPSETLSLTCAVSGHSISHDHAWSWVRQPPGEGLEWIGFISYSGITNYNPSLQGRVTISRDNSKNTLYLQMNSLRAEDTAVYYCARSLARTTAMDYWGEGTLVTVSSASTKGPSVFPLAPSSKSTSGGTAALGCLVKDYFPEPVTVSWNSGALTSGVHTFPAVLQSSGLYSLSSVVTVPSSSLGTQTYICNVNHKPSNTKVDKKVEPKSCDKTHTCPPCPAPELLGGDSVFLFPPKPKDTLMISRTPEVTCVVVDVSHEDPEVKFNWYVDGVEVHNAKTKPREEQYNATYRVVSVLTVLHQDWLNGKEYKCKVNNKALPAPIEKTISKAKGQPREPQVYTLPPSRDELTKNQVSLTCLVKGFYPSDIAVEWESNGQPENNYKTTPPVLDSDGSFFLYSKLTVDKSRWQQGNVFSCSVMHEALHNHYTQKSLSLSP
light: not shown
In the case of B4, the results for the “Relative FcgRIIb-binding Activity” value in test [1] and in test [4] were 100 % of IL6R-G1d/IL6R-L and 0.972 fold of IL6R-G1d/IL6R-L, respectively. Moreover, the “Relative FcgRIIaR-binding Activity” value is 14.7 % of IL6R-G1d/IL6R-L in test [2] and 0.025 fold of IL6R-G1d/IL6R-L in test [7]. In test [3], the “Relative FcgRIIaH-binding Activity” value is 0.009 fold of IL6R-G1d/IL6R-L. Besides, the “Relative FcgRIa-binding Activity” value in test [5] is 0.0446 fold of IL6R-G1d/IL6R-L. Besides, the “Relative FcgRIIIaV-binding Activity” value in test [6] is 0.011 fold of IL6R-G1d/IL6R-L.

B5: IL6R-P658/IL6R-L (antibody, human IgG1, kappa)
heavy: QVQLQESGPGLVKPSETLSLTCAVSGHSISHDHAWSWVRQPPGEGLEWIGFISYSGITNYNPSLQGRVTISRDNSKNTLYLQMNSLRAEDTAVYYCARSLARTTAMDYWGEGTLVTVSSASTKGPSVFPLAPSSKSTSGGTAALGCLVKDYFPEPVTVSWNSGALTSGVHTFPAVLQSSGLYSLSSVVTVPSSSLGTQTYICNVNHKPSNTKVDKKVEPKSCDKTHTCPPCPAPELFGGDSVMLFPPKPKDTLMISRTPEVTCVVVDVSHEDPEVKFNWYVDGVEVHNAKTKPREEQENSTYRVVSVLTVLHQDWLNGKEYKCKVSNKALPAPIEKTISKAKGQPREPQVYTLPPSRDELTKNQVSLTCLVKGFYPSDIAVEWESNGQPENNYKTTPPVLDSDGSFFLYSKLTVDKSRWQQGNVFSCSVMHEALHNHYTQKSLSLSP
light: not shown
Take B5: the figures for the “Relative FcgRIIb-binding Activity” value in test [1] and in test [4] were 149 % of IL6R-G1d/IL6R-L and 3.81 fold of IL6R-G1d/IL6R-L, respectively. The “Relative FcgRIIaR-binding Activity” value is 20.8 % of IL6R-G1d/IL6R-L in test [2] and 0.038 fold of IL6R-G1d/IL6R-L in test [7]. Besides, the “Relative FcgRIIaH-binding Activity” value in test [3] is 0.01 fold of IL6R-G1d/IL6R-L. Also, the “Relative FcgRIa-binding Activity” value in test [5] is 0.0004 fold of IL6R-G1d/IL6R-L. Also, in test [6], the “Relative FcgRIIIaV-binding Activity” value was 0.005 fold of IL6R-G1d/IL6R-L.

B6: IL6R-P689/IL6R-L (antibody, human IgG1, kappa)
heavy: QVQLQESGPGLVKPSETLSLTCAVSGHSISHDHAWSWVRQPPGEGLEWIGFISYSGITNYNPSLQGRVTISRDNSKNTLYLQMNSLRAEDTAVYYCARSLARTTAMDYWGEGTLVTVSSASTKGPSVFPLAPSSKSTSGGTAALGCLVKDYFPEPVTVSWNSGALTSGVHTFPAVLQSSGLYSLSSVVTVPSSSLGTQTYICNVNHKPSNTKVDKKVEPKSCDKTHTCPPCPAPELLGGDSVMLFPPKPKDTLMISRTPEVTCVVVDVSPEDPEVKFNWYVDGVEVHNAKTKPREEQENSTYRVVSVLTVLHQDWLNGKEYKCKVHNKALPAPIEKTISKAKGQPREPQVYTLPPSRDELTKNQVSLTCLVKGFYPSDIAVEWESNGQPENNYKTTPPVLDSDGSFFLYSKLTVDKSRWQQGNVFSCSVMHEALHNHYTQKSLSLSP
light: not shown
Consider B6, for which the “Relative FcgRIIb-binding Activity” value in test [1] was 103 % of IL6R-G1d/IL6R-L; in test [4], 1.09 fold of IL6R-G1d/IL6R-L. The “Relative FcgRIIaR-binding Activity” value in test [2] was 10.1 % of IL6R-G1d/IL6R-L; in test [7], 0.016 fold of IL6R-G1d/IL6R-L. In test [3], the “Relative FcgRIIaH-binding Activity” value is 0.008 fold of IL6R-G1d/IL6R-L. The “Relative FcgRIa-binding Activity” value in test [5] is 0.0118 fold of IL6R-G1d/IL6R-L. For the same molecule, the “Relative FcgRIIIaV-binding Activity” value in test [6] is 0.007 fold of IL6R-G1d/IL6R-L.

B7: IL6R-P661/IL6R-L (antibody, human IgG1, kappa)
heavy: QVQLQESGPGLVKPSETLSLTCAVSGHSISHDHAWSWVRQPPGEGLEWIGFISYSGITNYNPSLQGRVTISRDNSKNTLYLQMNSLRAEDTAVYYCARSLARTTAMDYWGEGTLVTVSSASTKGPSVFPLAPSSKSTSGGTAALGCLVKDYFPEPVTVSWNSGALTSGVHTFPAVLQSSGLYSLSSVVTVPSSSLGTQTYICNVNHKPSNTKVDKKVEPKSCDKTHTCPPCPAPELLGGDSVFLFPPKPKDTLMISRTPEVTCVVVDVSHEDPEVKFNWYVDGVEVHNAKTKPREEQYNATYRVVSVLTVLHQDWLNGKEYKCKVSNKALPHPIEKTISKAKGQPREPQVYTLPPSRDELTKNQVSLTCLVKGFYPSDIAVEWESNGQPENNYKTTPPVLDSDGSFFLYSKLTVDKSRWQQGNVFSCSVMHEALHNHYTQKSLSLSP
light: not shown
As for B7, the “Relative FcgRIIb-binding Activity” value is 109 % of IL6R-G1d/IL6R-L in test [1] and 1.28 fold of IL6R-G1d/IL6R-L in test [4]. For the same molecule, the “Relative FcgRIIaR-binding Activity” value was 17.5 % of IL6R-G1d/IL6R-L in test [2] and 0.03 fold of IL6R-G1d/IL6R-L in test [7]. In test [3], the “Relative FcgRIIaH-binding Activity” value is 0.01 fold of IL6R-G1d/IL6R-L. Moreover, the “Relative FcgRIa-binding Activity” value in test [5] was 0.033 fold of IL6R-G1d/IL6R-L. The “Relative FcgRIIIaV-binding Activity” value in test [6] is 0.012 fold of IL6R-G1d/IL6R-L.
